For this assay, the target named is T1, caspase 9 (UniProt P55211 1-416).
T1 sequence: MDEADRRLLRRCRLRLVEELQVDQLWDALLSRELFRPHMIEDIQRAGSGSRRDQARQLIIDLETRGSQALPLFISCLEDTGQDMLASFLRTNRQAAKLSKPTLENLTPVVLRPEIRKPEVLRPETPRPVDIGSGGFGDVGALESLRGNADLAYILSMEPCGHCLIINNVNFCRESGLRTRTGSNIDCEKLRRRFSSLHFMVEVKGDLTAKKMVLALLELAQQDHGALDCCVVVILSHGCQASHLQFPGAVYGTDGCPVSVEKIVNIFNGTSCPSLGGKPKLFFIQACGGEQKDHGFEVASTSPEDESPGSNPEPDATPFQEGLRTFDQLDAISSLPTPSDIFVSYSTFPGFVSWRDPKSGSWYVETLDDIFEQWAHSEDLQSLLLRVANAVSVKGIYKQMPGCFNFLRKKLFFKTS
The assay can be described thus: pull-down: pUL37Smyc held by anti-myc antibody on protein G agarose beads, 35S-labelled in vitro translated protein, SDS-PAGE.

B1: pUL37Smyc (HCMV pUL37S fused at its C-terminus with a c-myc-epitope tag) (other)
chain: MSPVYVNLLGSVGLLAFWYFSYRWIQRKRLEDPLPPWLRKKKACALTRRSRHRLRRQHGVIDGENSETERSVDLVAALLAEAGEESVTEDTEREDTEEEREDEEEENEARTPEVNPIDAEGLSGLAREACEALKKALRRHRFLWQRRQRARMLQHNGPQQSHQ
notes: range 410-419; also called pUL37x1; pUL37x1myc
Regarding B1, the binding result is listed as “no binding”.

(Values after patent US6902885 (APOPTOSIS TECHNOLOGY, dated 2005).)
